Data reported in patent publication US20100286021A1, “Methods of Modulating Prokineticin 2 for Treatment of Stress Response and Anxiety-Related Disorders” (priority 2007, published 2010).

Key:
PK2 mRNA in the PVN = conditions: compared with induction by 24 hours of food deprivation
Experimental: In situ hybridization was performed for detection. Animals were killed and brains were quickly dissected and stored at −80° C. until use. In situ hybridization was performed on coronal sections as described previously. The ^35S-hybridized slices were then coated with Kodak NTB2 autoradiographic emulsion and exposed for 1 month at 4° C.

[1] = Hot-plate pain test, morphine-induced analgesia; type: in vivo; conditions: subcutaneous injection, various concentrations, 55° C. hot plate, WT vs PK2^-/- mice
From the text: FIGS. 6A-6C show impaired stress-induced analgesia in PK2^-/- mice. […] (a and b) The hot-plate latency was monitored before or after stress. Animals were stressed by 3-min of cold-water swimming (a) or 5-min of tail suspension (b). Wild-type (closed circles); PK2^-/- (open circles). The black blocks indicate the stressing period. (c) The hot-plate latency was also monitored after subcutaneous injection of various concentrations of morphine. There was no genotypic difference in morphine-induced analgesia; n=12-15 mice/genotype *, P<0.05; unpaired t test. Error bars, SEM.
Pain perception and stress-induced analgesia was measured. All the pain tests were carried out on a hot plate with a 55° C. surface, on which no basal difference was observed between WT and PK2^-/- mice. The cut-off time was set to 1 min to prevent tissue damage. Stress was induced by forced swimming for 3 min in 10° C. water, or suspending the tail for 5 minutes.

[2] = Sleep/wake recording after ICV infusion; type: in vivo; conditions: rats, 5 μg ICV at ZT 14, following 4 hours (ZT 14-18), vs CSF
Experimental: (§1) (a) Artificial cerebrospinal fluid (CSF) or 5 μg of PK2 was infused ICV to rats at ZT 14. Slow wave sleep (SWS), rapid eye movement sleep (REM) and active wake (AW) during the following 4 hours (ZT 14-18) were averaged and presented as mean±SEM; n=6 rats/group. (b) CSF or 5 μg of PK2 was infused ICV to rats at ZT 2 (day) or ZT 14 (night), the food intake in the following 24 hours were measured periodically and presented as mean±SEM. n=6-10 rats/group. (c) CSF or 4 μg of PK2 was infused ICV into mice. Anxiety-like behavior was monitored with a light-dark box assay 1 hour after infusion. n=12 mice/group. (d) CSF or 4 μg of PK2 was infused ICV into mice. Immobility in a forced swimming test was measured 1 hour after infusion; n=12 mice/group. *, P<0.05; unpaired t test. Error bars, SEM.
Recording and analysis of sleep/wake was performed. The sleep/wake recording in rats was carried out as described in reference. Digital recording was visually scored as slow wave sleep (SWS), rapid eye movement sleep (REM) and active wake (AW). For the mice, electroencephalogram (EEG) and electromyogram (EMG) signals were recorded using a lightweight implant and cabling procedure as described. […] The signals were digitally filtered (EEG, 0.3-30 Hz; EMG, 2-100 Hz) and semi-automatically scored in 4 second epochs as wake, NREM, or REM sleep using SleepSign sleep scoring software (Kissei Comtec America, California). […]

[3] = Food intake after ICV infusion; type: in vivo; conditions: rats, 5 μg ICV at ZT 2 (day) or ZT 14 (night), following 24 hours, vs CSF
Experimental: as §1
Food intake was measured. Mice food intake measurement was performed using a Comprehensive Lab Animal Monitoring System (CLAMS, Columbus Instruments, Columbus, Ohio). Feeding data were collected every 10 min for each mouse over a period of 5 days. The daily food intake was the total food consumed during 24 hours. For rats, the food pellets in the food bin were measured manually every 4-8 hours after drug infusion. The food intake was the total amount of food loaded subtracted by the amount of food left.
Intracerebroventricular infusion was utilized. […]

[4] = Forced swimming test (depression-like behavior) after ICV infusion; type: in vivo; conditions: mice, 4 μg ICV, 1 hour after infusion, vs CSF
Experimental: as §1
The Porsolt forced swim test was utilized. Animals were placed individually in cylinders (height 25 cm, diameter 11 cm) filled with 8-cm-deep water (temperature 22±1° C.) for 6 minutes The total period of immobility during the 6 minutes was recorded. Immobility was defined as no volitional body or limb movement.
(§2) Intracerebroventricular infusion was utilized. Rats with cannula fit to the lateral ventricle were purchased from Charles River laboratory. […]

[5] = Light-dark box assay (anxiety-like behavior) after ICV infusion; type: in vivo; conditions: mice, 4 μg ICV, 1 hour after infusion, vs CSF
Experimental: as §1
The light-dark box was divided into a lit compartment (30×20×25 cm, illumination 400 lux) and a dark compartment (15×20×25 cm) connected by a 4-cm tunnel. The experiment was started by placing the animal in the dark compartment.
Numbers of transitions, total time spent in the lit compartment, and latency until the first exit were recorded on video and quantified during 10 minutes.
as §2

## O=CC[C@@H](O)[C@H](O)[C@H](O)CO [2-DG, 2-Dexoyl-D-glucose]
PK2 mRNA in the PVN
  induction of PK2 mRNA in the PVN: induction was mimicked

## CN1CC[C@]23c4c5ccc(O)c4O[C@H]2[C@@H](O)C=C[C@H]3[C@H]1C5 [morphine]
[1]
  morphine-induced analgesia (hot-plate latency): indistinguishable between WT and PK2^-/- mice

B1: PK2: regulatory peptide that activates two closely related G protein-coupled receptors (PKR1, PKR2) (protein, UniProt Q9HC23 28-129, looked up)
Prokineticin-2: AVITGACDKDSQCGGGMCCAVSIWVKSIRICTPMGKLGDSCHPLTRKNNFGNGRQERRKRKRSKRKKEVPFFGRRMHHTCPCLPGLACLRTSFNRFICLAQK
[2]
  arousal level: significantly increased arousal level
[3]
  food intake: circadian phase-independent suppression of food intake
[4]
  time spent on immobility: significantly increased the time spent on immobility
[5]
  general activity (total entries): without significant effect on general activity
  time spent in the lit compartment: significantly less time spent in the lit compartment
